Source: the supplement of paper PMC9732359
± gives the uncertainty stated by the source.

assay: protein stability index of a GFP-peptide fusion (yeast GPS) (PSI 1-4); higher = more stable; sorted into four equal gates, so the index is relative within each strain; settings: san1∆
How it was run: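 Sequencing reads from sorted gates were used to score each peptide. The library consisted of tiled 17-residue yeast protein peptides fused downstream of GFP on a Cherry-expressing plasmid, pooled and carried in yeast. Mid-log cultures in leucine-free medium were split into four equal gates by GFP/Cherry ratio, and each gate's plasmids were PCR-amplified and Illumina-sequenced. The protein stability index adds up, over all gates, the read frequency multiplied by the gate number.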

Sequence | protein stability index
SKLSKNISFYKLHVNWN [SIN4] | 2.02 ± 0.11

same assay, conditions: ubr1∆

Sequence | protein stability index
RQQKLLEDQQRQQKLLL [SWI1] | 3.25 ± 0.069
RQTLAPYAVLSQFYELR [YJR042W/NUP85] | 2.35 ± 0.09
RRGTALGIKKEKRIQYA [RPB2] | 2.89 ± 0.072
RRMGILKKILDQCKKQR [RPO31] | 1.9 ± 0.098
RRSKMNPLWNAIIVAGV [PRE4] | 2.93 ± 0.074
RRTYNTLEDKFLLLAVN [ISW2] | 1.28 ± 0.071
RSEFIESLLNWINRSDG [YJR042W/NUP85] | 3.22 ± 0.22
RSMDAEQLGHASKRHKP [RPP1] | 2.74 ± 0.046
RSNGSVASLSKRNKLLT [YJL039C/NUP192] | 1.54 ± 0.062
RSYDLTRHQNTIHAKRK [RPN4] | 2.53 ± 0.07
RTLWPEFIPPDPTKVTE [SSN8] | 2.671 ± 0.026
RTQAGDIVSIDIEEPQL [MTW1] | 3.24 ± 0.081
RTRRLKRKRRKVRARSK [RPL41A] | 3.22 ± 0.2
RVFNAKDTTGPKAISNF [YCS4] | 2.9 ± 0.1
RVLITQRHIAVGKQIVN [RPS9A] | 2.59 ± 0.15
RVNEMVQGMNDDIFIRY [ECM29] | 2.39 ± 0.11
RVSLQDIKDFADKVYTK [QCR2] | 2.67 ± 0.076
RYFWLDHNGVPFPQYPA [ITC1] | 2.47 ± 0.06
RYPMNLLEFIIDEIAYL [ECM29] | 2.89 ± 0.2
RYVYAHFPINVNIVEKD [RPL9A] | 2.19 ± 0.043
SAENRDEKDYLTNQQPK [CSE2] | 2.77 ± 0.038
SAESWGTGRAVARIPRV [RPL4A] | 2.75 ± 0.27
SAFKFIHTQLSEIKQQI [YJL039C/NUP192] | 2.83 ± 0.061
SAGNDKMVKAWNLNQFQ [ASC1] | 2.36 ± 0.041
SAKGPEIIPLQDYYIIG [MED6] | 3.31 ± 0.063
SAKTRSHNWAAKAKRRH [RPL37B] | 3.41 ± 0.042

Sequence | protein stability index
SALEQAIIYQRGKDGKL [YGL100W/SEH1] | 3 ± 0.06
SAMPAPYMPYYYYYHPM [DSN1] | 2.84 ± 0.042
SANTNNTCTISTSKFES [SWP82] | 2.13 ± 0.04
SARGIETRPAQVILPMS [FAS2] | 3.16 ± 0.082
SASFSLKNGDKPHLLKF [RPL6B] | 3.42 ± 0.16
SASLHLNYGVYLNGTLI [RET1] | 3.18 ± 0.092
SASTSATGISGSVSEET [ECM29] | 3.33 ± 0.042
SCSFFAKLSDTLIIDQV [NUT1] | 1.91 ± 0.039
SDAMSIDEEDKDSESFS [YCG1] | 2.4 ± 0.069
SDEEENNNNKSINKNNK [SSN2] | 3.07 ± 0.08
SDEKKDGDASKPAFSFG [YJL041W/NSP1] | 3.23 ± 0.1
SDELHNQSTIYEDEELS [LIN1] | 2.97 ± 0.077
SDIESLEALMDILLCYQ [SRB8] | 2.29 ± 0.2
SDINQNDDSSSMNATMR [YDL088C/ASM4] | 2.69 ± 0.054
SDLKGKLSSAENANADL [YIL149C/MLP2] | 3.17 ± 0.071
SDLNLTDRQKKLLGVDM [YLR018C/POM34] | 3.23 ± 0.039
SDMENDNLLLNLEQINE [REC8] | 2.86 ± 0.048
SDNSVSVRLQVTKILPH [IRR1] | 3.04 ± 0.074
SDREMAALIASKVYYNL [RPN2] | 1.7 ± 0.045
SDSETNHKSKDNNNGDD [SKP1] | 3.15 ± 0.045
SDSIELLKQYPKDSSST [YJR042W/NUP85] | 2.82 ± 0.041
SDSLDIAQGIDLVRDID [SRP72] | 3.26 ± 0.1
SEAEQIDTSKNLENMSI [YCG1] | 2.99 ± 0.069
SEAFPSLQSCSVAVHFQ [SMC4] | 1.79 ± 0.056
SEEKIRDYSKEILGINL [SIR4] | 3.06 ± 0.064
SEETQFKYVEDRFPLKL [ITC1] | 3.01 ± 0.14

Sequence | protein stability index
SEFLNVPFESLQGVTYP [YIL149C/MLP2] | 2.96 ± 0.063
SEGEQKSAEGNNIDQSL [YAR002W/NUP60] | 3.05 ± 0.065
SEGSGSSLVQKGLETID [RPC53] | 3.08 ± 0.063
SEISDGKLKRCSRCGSV [SIN4] | 3.59 ± 0.11
SEVRKAVSIETALEHKV [FAS2] | 1.39 ± 0.051
SFALPFEEDEKNSDVWF [RPN8] | 3.26 ± 0.06
SFCGFLLYYIPSLELSA [YJR042W/NUP85] | 1.95 ± 0.059
SFDAVSDSIELLKQYPK [YJR042W/NUP85] | 2.59 ± 0.087
SFHVQKKTCSSCGYPAA [RPL37A] | 2.06 ± 0.068
SFILSSLEDPQVRKKQI [YDL116W/NUP84] | 3 ± 0.1
SFKIFVDVLVISSHSHP [RRP42] | 1.39 ± 0.032
SFLEKPKFAIQDNHHIT [YMR129W/POM152] | 2.76 ± 0.089
SFLKEGDLLNAEVQSLF [RRP4] | 2.8 ± 0.067
SFLSKHALYLAPSGIRM [SSN2] | 2.19 ± 0.086
SFNIPRLTFKPWVVYLQ [YMR129W/POM152] | 1.04 ± 0.042
SFQKKSNDKVVEWINPS [ISW2] | 3.19 ± 0.088
SFTNYITRSFKEPRLVI [RPS0A] | 2.83 ± 0.074
SFTSATERHIQVGDGLE [PRE7] | 2.85 ± 0.049
SGCENITDKTIESIVNL [GRR1] | 2.98 ± 0.078
SGEDAEEELWNSPSKGN [YIL149C/MLP2] | 3.21 ± 0.065
SGIRLIEPELFNGYNPE [FAS2] | 2.83 ± 0.045
SGKRKPTKAAQRARDQD [GAL11] | 3.58 ± 0.15
SGKSNFFAAIRFVLSDD [SMC3] | 3.22 ± 0.052
SGNDSMAGKVLILTSHN [BRR2] | 2.36 ± 0.089
SGRNIHLAVVCVDDNSK [SSN2] | 2.96 ± 0.045
SGTDGSTIGILLLTIQL [SRP72] | 3.15 ± 0.057

Sequence | protein stability index
SGWTPFHIACSVGNLEV [NAS6] | 1.94 ± 0.11
SHAVEFFMSERSSRLHI [YML103C/NUP188] | 2.4 ± 0.049
SHEERIEAIDEYNKPNS [ISW2] | 2.94 ± 0.039
SIEFAKREKRVFLKHSL [RPN6] | 2.7 ± 0.098
SIEMEEETDDEDKQNIE [RRI2] | 3.19 ± 0.061
SIGASIADLASLEQLLG [YCS4] | 2.92 ± 0.033
SIHAHGSTDVGYYLSLG [PUP1] | 2.24 ± 0.053
SILEHSGIRLIEPELFN [FAS2] | 2.86 ± 0.039
SIMAVTFKDGVILGADS [PRE3] | 2.59 ± 0.14
SIQPIESNIKMTLEDNN [SSN2] | 2.97 ± 0.043
SIVLDSEHFDVNDNPDI [DIS3] | 3.1 ± 0.046
SIWQVKDQLPDLESMGL [MED7] | 3.35 ± 0.097
SKALNSILESSMFLRID [RGR1] | 2.83 ± 0.082
SKDIETLKKEWLKEYED [YIL149C/MLP2] | 3.15 ± 0.051
SKGSFINIAQMSACVGQ [RPO21] | 1.67 ± 0.051
SKICLSHFSLDQFITSL [ITC1] | 2.69 ± 0.057
SKIFNESFPDDIPLAKA [CDC53] | 2.82 ± 0.037
SKISQMAQNKTHIPQTN [YLR018C/POM34] | 1.95 ± 0.07
SKKAEKTGTKPAAVFAE [RPL4B] | 2.75 ± 0.061
SKLDIYTQQQALEYIGA [RET1] | 1.89 ± 0.13
SKLEGTINKAVQVKVLG [ESC2] | 1.75 ± 0.086
SKLLYDDVTCDKLSVSE [SIN4] | 3.23 ± 0.043
SKLSEHLNHYILLRYHH [YCG1] | 2.02 ± 0.062
SKLSKNISFYKLHVNWN [SIN4] | 2.04 ± 0.06
